According to patent US20260258131A1 (ADAGENE PTE, published 2026):

T1: recombinant cynomolgus monkey CTLA-4 protein (cynomolgus monkey, UniProt G7PL88 36-161)
T1 sequence: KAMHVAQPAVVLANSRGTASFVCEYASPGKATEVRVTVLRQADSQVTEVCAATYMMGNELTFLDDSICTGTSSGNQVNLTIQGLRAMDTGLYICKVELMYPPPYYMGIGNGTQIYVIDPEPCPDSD

T2: recombinant rat CTLA-4 protein (rat, UniProt Q62859 36-161)
T2 sequence: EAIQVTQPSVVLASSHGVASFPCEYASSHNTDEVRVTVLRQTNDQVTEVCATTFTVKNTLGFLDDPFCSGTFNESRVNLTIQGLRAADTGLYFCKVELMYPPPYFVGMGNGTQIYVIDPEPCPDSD

T3: Recombinant human CTLA4-hisFc (human, UniProt P16410 36-161, limits assumed)
T3 construct: Coated on the ELISA plate; the whole UniProt entry is named; also called recombinant human CLTA4-hisFc; its antigen; not shown: his tag and Fc
T3 sequence (looked up): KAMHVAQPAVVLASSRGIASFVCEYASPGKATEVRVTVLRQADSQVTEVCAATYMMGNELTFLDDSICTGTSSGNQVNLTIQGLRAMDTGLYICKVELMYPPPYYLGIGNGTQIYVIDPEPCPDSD

T4: human CTLA4 expressed on cells (human, UniProt P16410 36-223)
T4 sequence (looked up): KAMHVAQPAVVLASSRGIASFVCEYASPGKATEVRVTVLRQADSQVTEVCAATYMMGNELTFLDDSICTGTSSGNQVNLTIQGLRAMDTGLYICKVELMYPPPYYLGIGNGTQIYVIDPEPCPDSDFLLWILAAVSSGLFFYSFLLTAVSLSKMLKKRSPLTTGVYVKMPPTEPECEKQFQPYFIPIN

T5: biotinylated CTLA-4 protein (UniProt P16410 36-161, limits assumed, biotinylated (sites not given))
T5 construct: also called receptor CTLA-4
T5 sequence (looked up): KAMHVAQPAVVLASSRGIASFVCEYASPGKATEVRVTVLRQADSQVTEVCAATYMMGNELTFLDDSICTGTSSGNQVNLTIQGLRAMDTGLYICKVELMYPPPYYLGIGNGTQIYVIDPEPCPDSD

T6: recombinant human CTLA-4 protein (human, UniProt P16410 36-161, limits assumed)
T6 sequence (looked up): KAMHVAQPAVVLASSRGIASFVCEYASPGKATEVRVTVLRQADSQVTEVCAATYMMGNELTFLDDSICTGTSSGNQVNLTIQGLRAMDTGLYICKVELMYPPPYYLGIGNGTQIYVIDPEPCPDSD


Key:
[1] = molecular target: T1, recombinant cynomolgus monkey CTLA-4 …; experiment: SPR (Biacore), antibody captured by anti-human IgG Fc, CTLA-4 in flow
Description: (§1) Serial dilutions of recombinant CTLA-4 proteins of different species origins were sequentially loaded and flowed through the chip to measure the kinetics of CTLA-4 antigen association (kₐ), followed by a buffer flow-through phase for dissociation kinetics (kd) measurement. The binding affinity (KD) is then calculated with […].

[2] = molecular target: recombinant mouse CTLA-4 protein (mouse, UniProt P09793 36-161, limits assumed); experiment: as above
Description: as §1

[3] = molecular target: T2, recombinant rat CTLA-4 protein; experiment: as above
Description: as §1

[4] = molecular target: T3, Recombinant human CTLA4-hisFc; experiment: ELISA, coated CTLA4-hisFc
Description: Plates were blocked with PBS supplemented with 3% non-fat milk at 37° C. for 1 hour. After washing, 100 µL of 3-fold serial dilutions of antibodies were added to each well. After incubation at 37° C. for 1 hour, plates were washed four times, and 100 μL HRP conjugated anti-human IgG (Fab specific) (1:6000 dilution) was added to each well. Plates were incubated at 37° C. for 1 hour, washed four times, and then 50 μL TMB substrate solution was added to each well, and the plate was incubated at room temperature. Absorbance at 450 nm was measured after the reactions were stopped with 50 μL H2SO4 per well. The EC50 was evaluated by fitting the ELISA data using the sigmoidal (four-parameter logistic equation) model of GraphPad Prism 6 software. Experiments for some activatable antibodies were performed twice or more, leading to two or more calculated masking efficiencies being obtained for each of these activatable antibodies.
The purified activatable antibodies were treated with the proteases which recognize the cleavage sequences, and were then tested to determine whether removal of the masking peptide restored their activity. […] The reactions were carried out at 37° C. for 24 hours. […] The masking efficiency was then measured by ELISA as described above.

[5] = molecular target: T4, human CTLA4 expressed on cells; experiment: cell-based or functional assay
[6] = molecular target: T5, biotinylated CTLA-4 protein; experiment: competition ELISA, biotinylated CTLA-4 on coated CD80 (competitor CD80)
Excerpt: (§2) Relative CTLA-4 and its ligand binding was monitored by reading the absorbance at 450 nm wavelength in the micro-plate reader.

[7] = molecular target: T6, recombinant human CTLA-4 protein; experiment: SPR (Biacore), antibody captured by anti-human IgG Fc, CTLA-4 in flow
Description: as §1

[8] = molecular target: T5, biotinylated CTLA-4 protein; experiment: competition ELISA, biotinylated CTLA-4 on coated CD86 (competitor CD86)
Excerpt: as §2

Row | Kd [1] [nM] | Kd [2] [nM] | Kd [3] [nM] | EC50 [4] [nM] | ADCP reporter activity (luciferase), EC50 [5] [nM] | IC50 [6] [nM] | Kd [7] [nM] | IC50 [8] [nM] | Binder
1 | 0.37 | 0.5 | 0.78 | 0.298 | 5.6 |  |  |  | TY21580 (antibody, human IgG1, V domains shown, also called parental antibody TY21580) VH: EVQLVESGGGLVQPGGSLRLSCAASGYSISSGYHWSWIRQAPGKGLEWLARIDWDDDKYYSTSLKSRLTISRDNSKNTLYLQLNSLRAEDTAVYYCARSYVYFDYWGQGTLVTVSS VL: DIQLTQSPSSLSASVGDRVTITCRASQSVRGRFLAWYQQKPGKAPKLLIYDASNRATGIPSRFSGSGSGTDFTLTISSLQPEDFATYYCQQSSSWPPTFGQGTKVEIKR
2 | 32.3 | 49.4 | 59.5 |  |  | > 20000 | 32.5 | > 4000 | TY24652 (antibody, human IgG1, kappa, also called non-cleaved form TY24652) heavy: not shown light: ETLCEPFATSVCRPGGGPLGLAGGGSDIQLTQSPSSLSASVGDRVTITCRASQSVRGRFLAWYQQKPGKAPKLLIYDASNRATGIPSRFSGSGSGTDFTLTISSLQPEDFATYYCQQSSSWPPTFGQGTKVEIKRTVAAPSVFIFPPSDEQLKSGTASVVCLLNNFYPREAKVQWKVDNALQSGNSQESVTEQDSKDSTYSLSSTLTLSKADYEKHKVYACEVTHQGLSSPVTKSFNRGEC
